The values that follow come from publication PMC10611554, “AcbHLH144 transcription factor negatively regulates phenolic biosynthesis to modulate pineapple internal browning”.

For the data set, the target named is T1, GST-AcbHLH144 (pineapple, UniProt A0A6P5FRB5 1-240).
T1 sequence: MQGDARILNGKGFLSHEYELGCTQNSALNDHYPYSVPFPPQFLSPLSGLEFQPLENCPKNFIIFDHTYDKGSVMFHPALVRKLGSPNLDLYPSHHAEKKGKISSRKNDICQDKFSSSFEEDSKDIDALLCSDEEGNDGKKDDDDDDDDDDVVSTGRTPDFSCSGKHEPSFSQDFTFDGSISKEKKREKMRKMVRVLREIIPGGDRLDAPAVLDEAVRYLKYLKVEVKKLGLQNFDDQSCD
In words: EMSA; Chemiluminescent EMSA Kit (Beyotime); buffer, salt, pH and temperature not stated. The following applies: protein: recombinant; tags: N-terminal GST (pGEX-4T-1); chain copies: 2; label: biotin; blunt. (Mobility shift assays separate free from complexed probe on a gel.)

B1: Ac4CL5 promoter N-box probe (dsDNA)
DNA 1: CGGAGCACCTGCCCCTGCACGAGTACTGCTTCGAGCAGCT
DNA 2: AGCTGCTCGAAGCAGTACTCGTGCAGGGGCAGGTGCTCCG
For the molecule B1, the binding result is on record as “binds”.
